Consider 72 sequences from the supplement of paper PMC10567573.

This series in a line: protein stability index of a GFP-peptide fusion (GPS, HEK-293T) (PSI 1-6); higher = more stable.
The mark [1] stands for this setting: treatment: DMSO, c terminus: a fixed tail appended.
[2] abbreviates: treatment: MLN4924 1 uM, 8 h, c terminus: a fixed tail appended.
The mark [3] stands for this setting: treatment: DMSO, c terminus: native.
The mark [4] stands for this setting: treatment: MLN4924 1 uM, 8 h, c terminus: native.

± gives the standard deviation.
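Note: 24-mer peptide tiles fused after GFP, lentivirally expressed, FACS-sorted into six equal bins by GFP/DsRed ratio, decoded by Illumina sequencing, PSI is the read-weighted mean bin number.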

As to NSSQLLLRRHAGLLDGLARRVGIL [SCARA5], the protein stability index is 2.72 ± 0.027 under setting [1] and 2.69 ± 0.28 under setting [2].

SICMRMEILGCPLPDPNNYYHRRN [CPXM2] came in with a protein stability index under setting [1] of 2.68 ± 0.27 and a protein stability index under setting [2] of 2.46 ± 0.24.

GERPYKCSECGESFSRSSRLMSHQ [ZNF263] gave a protein stability index under setting [1] of 3.25 ± 0.51 and a protein stability index under setting [2] of 3.53 ± 0.83.

Take ELFKELSINVMKQLIGSSNLFVMQ [GMCL1]: under setting [2], the protein stability index worked out at 3.95 ± 0.43.

Consider VFPETAFIAVTSYQNHKITQLKIE [TBX5], for which the protein stability index turned out to be 2.22 ± 0.35 under setting [1] and 2.21 ± 0.32 under setting [2].

For the sequence GIKSKEAEEYRLKEHYLTFEKSRY [PSD2], the protein stability index is, setting by setting: under setting [1], 3.82 ± 0.093; under setting [2], 3.94 ± 0.31.

As for GSSGGQQPSGMKEGVKRYEQEHAA [CHCHD6], the protein stability index was 5 ± 0.054 under setting [1] and 5.47 ± 0.21 under setting [2].

As for RSSSRINIPERASGPEGNLNQIVT [FAM104B], the protein stability index was determined as 4.28 ± 0.27 under setting [1] and 4.36 ± 0.2 under setting [2].

KVEEVSLPEQVDIIISEPMGYMLF [CARM1] came in with a protein stability index under setting [1] of 2.88 ± 0.49 and a protein stability index under setting [2] of 2.54 ± 0.35.

Take QLYCEKVQGLMKEYLLSFPAGKTP [VPS39]: the protein stability index runs as follows: under setting [1], 2.27 ± 0.16; under setting [2], 2.41 ± 0.16.

As for TVPDEFTVEERQTGMWWRHLVAGG [SLC25A25], the protein stability index was found to be 2.77 ± 0.19 under setting [1] and 3 ± 0.14 under setting [2].

For the sequence YPASIVDEPTFKVLLKTADPRYEL [ZBED1], the protein stability index was 2.89 ± 0.26 under setting [1] and 3.27 ± 0.29 under setting [2].

ERRGGLPPLPLHPGGDQGGPPVGP [WAS] came in with a protein stability index under setting [1] of 4.95 ± 0.4 and a protein stability index under setting [2] of 5.22 ± 0.2.

Turning to ASLGDVQSGATISMPCSTDKENGE [SASS6], the protein stability index came to 5.69 ± 0.17 under setting [1] and 5.62 ± 0.23 under setting [2].

Consider KIKKSPLTICYPEYAGSNTYEEAA [GNAI1], for which the protein stability index by setting is: under setting [1], 3.34 ± 0.26; under setting [2], 3.91 ± 0.28.

LLLLSKAKLVPSEREASPSNSCQD [IKZF1] had a protein stability index under setting [1] of 3.31 ± 0.099 and a protein stability index under setting [2] of 3.14 ± 0.15.

For the sequence LRKREKAEEKERRRKEYDALKAAK [LRRC59], the protein stability index reads like this: under setting [1], 4.66 ± 0.4; under setting [2], 4.79 ± 0.31.

Consider SGSGNRLDGKKKGVEPSPSPIKPG [UFD1], for which the protein stability index worked out at 4.61 ± 0.29 under setting [1] and 4.72 ± 0.079 under setting [2].

Consider HYAGQDATDPFVAFHINKGLVKKY [FADS1], for which the protein stability index under setting [1] was 3.21 ± 0.26 and the protein stability index under setting [2] is 3.14 ± 0.11.

Turning to AEISQPPALSQLVNLYLGRSHFLW [TCF25], the protein stability index by setting is: under setting [1], 2.67 ± 0.23; under setting [2], 2.73 ± 0.44.

DEIRWKYHSDTTPKIIESQRPPH [IQUB] had a protein stability index under setting [3] of 4.25 ± 0.36 and a protein stability index under setting [4] of 4.09 ± 0.29.

VASGSTPAPALCCAPYDSRLLGSA [IRX6] showed a protein stability index under setting [1] of 2.64 ± 0.21 and a protein stability index under setting [2] of 2.99 ± 0.13.

Take ALELLGATFVDKKRDLLGALKYWK [FEM1C]: the protein stability index by setting is: under setting [1], 2.25 ± 0.37; under setting [2], 2.52 ± 0.86.

As to APKVNAVDTLNVKDIAPEKQLLNS [DLC1], the protein stability index stood at 4.88 ± 0.2 under setting [1] and 4.82 ± 0.35 under setting [2].

In turn, HSQELTNEKEKALQAQVQYQQQHE [SASS6] registered a protein stability index under setting [1] of 5.45 ± 0.26 and a protein stability index under setting [2] of 5.51 ± 0.14.

With GQTPLAVSISISGSSRPCLDFLQE [ASB7], the protein stability index under setting [1] was found to be 2.83 ± 0.93 and the protein stability index under setting [2] came to 2.24 ± 0.37.

Take EDVLLLNFEEMRALLDSLPPPVES [KLHL14]: the protein stability index is, setting by setting: under setting [1], 3.34 ± 0.24; under setting [2], 3.57 ± 0.41.

Consider DALRFTADVRSVLSRNLHQHRLW [CTDNEP1], for which the protein stability index amounted to 2.6 ± 0.48 under setting [3] and 2.99 ± 0.26 under setting [4].

Regarding ALATLRVLRGLARPEHPPPAPTGQ [TMEM175], the protein stability index reads like this: under setting [1], 3.09 ± 0.22; under setting [2], 3.09 ± 0.39.

Regarding TLLPASLFVNSHPGIDRPGMLCSF [DCAF4], the protein stability index was found to be 2.31 ± 0.36 under setting [1] and 2.2 ± 0.22 under setting [2].

Regarding KLENARLSSEMNTSTVNSAREELM [LMNB1], the protein stability index by setting is: under setting [1], 4.59 ± 0.19; under setting [2], 4.71 ± 0.11.

Regarding RTLRNFINDEMQAKGIPQRAPPKR [PCMTD1], the protein stability index reads like this: under setting [1], 4.06 ± 0.16; under setting [2], 3.98 ± 0.36.

In the case of ETAIADAEQRGDNALKDARAKLDE [KRT71], the protein stability index amounted to 5.57 ± 0.21 under setting [1] and 5.41 ± 0.54 under setting [2].

In the case of YLHPNSYSCACLASGSVLRLVDAV [HDAC6], the protein stability index by setting is: under setting [1], 2.82 ± 0.36; under setting [2], 2.32 ± 0.066.

DDCSSTIVEDPQTKCEYMLNSMPK [ESRRG]: the protein stability index is 4.87 ± 0.29 under setting [1] and 4.95 ± 0.22 under setting [2].

For GLTKKRTKVQKKSLLLKKPLRVDL [NOP53], the protein stability index reads like this: under setting [1], 3.25 ± 0.13; under setting [2], 3.42 ± 0.35.

KPYAVMVFQTEQKNLFRLEMDMVV [N4BP2L1]: the protein stability index reads like this: under setting [1], 2.7 ± 0.1; under setting [2], 2.96 ± 0.88.

As to LNERKQASAIKKEELVARSETHAA [CHGB], the protein stability index stood at 5.48 ± 0.22 under setting [1] and 5 ± 0.23 under setting [2].

As for QAQKDPKKDRPLARRKSELPQDPH [PPP2R5C], the protein stability index by setting is: under setting [1], 5.12 ± 0.17; under setting [2], 5.34 ± 0.17.

For the sequence AVEAELKSSTVGLVTLNDMKAKQE [FAM50A], the protein stability index was 5.21 ± 0.2 under setting [1] and 5.25 ± 0.13 under setting [2].

For the sequence HFDLRDDDDAEEEGPKRELGVRRP [TCF25], the protein stability index by setting is: under setting [1], 5.32 ± 0.26; under setting [2], 5.24 ± 0.3.

Regarding TDRSHIYTFTDTFTEKLWPLFYPG [TRIM39], the protein stability index under setting [1] amounted to 2.16 ± 0.47 and the protein stability index under setting [2] stood at 2.15 ± 0.56.

In the case of DRIATTDDTTAMASASSSATGSFS [MAGEA10], the protein stability index runs as follows: under setting [1], 5.2 ± 0.11; under setting [2], 5.28 ± 0.09.

For the sequence DVLENAFAPLLDEQYDLATKRVRQ [GOLPH3], the protein stability index under setting [1] turned out to be 3.43 ± 0.26 and the protein stability index under setting [2] worked out at 3.52 ± 0.5.

Consider VRAAQLCSQHWGGMASFRFPETTF [TBX6], for which the protein stability index runs as follows: under setting [1], 2.48 ± 0.59; under setting [2], 2.1 ± 0.34.

Regarding LWTTSRVLKVLSVCSSNKPAIVEA [CTNNB1], the protein stability index is 2.21 ± 0.3 under setting [1] and 2.08 ± 0.28 under setting [2].

On to RSLFSSVPSKPPMSLEPQNGTYAG [ANKRD40], for which the protein stability index came to 3.51 ± 0.19 under setting [1] and 4.29 ± 0.41 under setting [2].

Consider PQGISPVSQHWATWALYNLVSVYP [ZER1], for which the protein stability index under setting [1] is 3 ± 0.57 and the protein stability index under setting [2] turned out to be 2.88 ± 0.32.

For the sequence EPNRLETGEAGEELDLRLRLAQPS [RTN2], the protein stability index worked out at 5.17 ± 0.13 under setting [1] and 5.28 ± 0.17 under setting [2].

Consider HLDPGFLASDKTSAGNAPLNEEIN [C18orf25], for which the protein stability index reads like this: under setting [1], 4.75 ± 0.29; under setting [2], 4.97 ± 0.33.

For the sequence NTTLTQYQLLATHVPTVWAIDQYR [RHOBTB1], the protein stability index is 2.75 ± 0.56 under setting [1] and 2.41 ± 0.43 under setting [2].

As for LNFCGPNVINHFYCDLPQLFQLSC [OR3A1], the protein stability index came to 2.83 ± 0.51 under setting [1] and 2.6 ± 0.71 under setting [2].

Regarding KELDENVEYEERESEFDIEDEDKS [RBBP5], the protein stability index is 5.65 ± 0.23 under setting [1] and 5.62 ± 0.32 under setting [2].

KTVCGYYTSAGTYGLDSVKKKCLE [GMCL1] registered a protein stability index under setting [1] of 3.16 ± 0.3 and a protein stability index under setting [2] of 2.97 ± 0.49.

With LELIEPLIKFQVGLKKLNLHEEEH [VDR], the protein stability index is, setting by setting: under setting [1], 2.73 ± 0.21; under setting [2], 2.9 ± 0.42.

Take APQHPQPGSQALPAPALAPDQLPQ [FBXO28]: the protein stability index by setting is: under setting [1], 5.13 ± 0.32; under setting [2], 5.04 ± 0.29.

On to HGLAFWFDVAFIGSIMTVWLSTAP [CARM1], for which the protein stability index reads like this: under setting [1], 2.78 ± 0.33; under setting [2], 3.1 ± 0.53.

Take QTNKPALRAVRQRSEFTLMAKRIG [STX5]: the protein stability index amounted to 3.15 ± 0.29 under setting [1] and 3.35 ± 0.25 under setting [2].

Turning to MLEASEWATIEGLVELLQPFKQVA [ZBED1], the protein stability index runs as follows: under setting [1], 2.23 ± 0.76; under setting [2], 2.27 ± 0.23.

In turn, ICEATQIIDYLEQTFLDERTPRLM [GDAP1] displayed a protein stability index under setting [1] of 2.39 ± 0.24 and a protein stability index under setting [2] of 2.45 ± 0.18.

Consider PETHIFTAPEEVPKVSDQALVSAH [DMRTC1], for which the protein stability index is 4.96 ± 0.34 under setting [1] and 4.92 ± 0.11 under setting [2].

Take PAPPPPAGGATAWGDLLGEDSLAA [SNAP91]: the protein stability index was determined as 5.13 ± 0.22 under setting [1] and 5.11 ± 0.13 under setting [2].

On to KDYNNLWIIKKHNTNSDPLDPSFP [POMT2], for which the protein stability index reads like this: under setting [1], 3.15 ± 0.19; under setting [2], 3.29 ± 0.26.

In the case of VQAPRWGNPRALSFVLSSLQLGEG [OAS1], the protein stability index is, setting by setting: under setting [1], 2.31 ± 0.2; under setting [2], 2.24 ± 0.22.

On to VPPRMGSRAGGPTTPLSPTRLSRL [LMNB1], for which the protein stability index under setting [1] stood at 3.92 ± 0.57 and the protein stability index under setting [2] amounted to 3.85 ± 0.56.

On to INRTFFFDVHPPLGKMLIGLAGYL [POMT2], for which the protein stability index was 3.07 ± 0.57 under setting [1] and 2.6 ± 0.59 under setting [2].

Turning to PVHLVDKLPLPSTLRSHLKSFSMA [RAB40A], the protein stability index is 2.6 ± 0.085 under setting [1] and 2.63 ± 0.19 under setting [2].

In the case of SLVTVGKHLTARVLCLIVLPLALY [POMT2], the protein stability index runs as follows: under setting [1], 2.63 ± 0.58; under setting [2], 2.58 ± 0.33.

In the case of LSICFTCFKAAFLDFKDLLESEDW [TEX19], the protein stability index reads like this: under setting [1], 2.62 ± 0.5; under setting [2], 2.69 ± 0.39.

EAEAADSGAVGARRFLLCLYLVGF [MFSD9]: the protein stability index by setting is: under setting [1], 2.79 ± 0.91; under setting [2], 2.65 ± 0.71.

SMQAVLDYLYTKQLSPNLDLDPLE [RHOBTB1]: the protein stability index reads like this: under setting [1], 2.47 ± 0.37; under setting [2], 2.19 ± 0.47.

Turning to GKSLLLMTRNDVLTGLQLKLGPAL [SAMD13], the protein stability index under setting [1] stood at 2.27 ± 0.4 and the protein stability index under setting [2] amounted to 2.26 ± 0.28.
